Article PMC5314372

Assays:
[1] = biological target: N-terminally-truncated ΦAB6 tailspike protein (residues 136-699) (bacteriophage ΦAB6); experiment: AUC; sedimentation at 20,000 rpm, Beckman XL-A, An-60 Ti rotor; 25 mM Tris-HCl, 300 mM NaCl, pH 8.0; analysed with SEDFIT
[2] = biological target: N-terminally-truncated ΦAB6 tailspike protein (residues 136-699) (bacteriophage ΦAB6); experiment: crystal structure; hanging-drop vapor diffusion at 20 °C; 1.0 M sodium malonate pH 7.0 or 0.9 M sodium citrate, 0.1 M sodium cacodylate pH 6.5; space group C2, one trimer in the asymmetric unit; free form and forms soaked with Ab-54149 polysaccharide
[3] = biological target: bacteriophage ΦAB6 tailspike protein (bacteriophage ΦAB6); experiment: AUC; sedimentation at 20,000 rpm, Beckman XL-A, An-60 Ti rotor; 25 mM Tris-HCl, 300 mM NaCl, pH 8.0; analysed with SEDFIT
[4] = biological target: bacteriophage ΦAB6 tailspike protein (bacteriophage ΦAB6); experiment: SEC; analytical gel-filtration column, single peak; calibration curve of log MW versus Ve/V0 with five protein markers

Substance	stoichiometry N [1]	stoichiometry N [2]	stoichiometry N [3]	stoichiometry N [4]
N-terminally-truncated ΦAB6 tailspike protein (residues 136-699) (domain or fragment)	3	3	–	–
bacteriophage ΦAB6 tailspike protein (enzyme)	–	–	3	3
